From article PMC3433420
Several values for one entry are separate records, joined by “and”; a condition that tells them apart may be missing. Equal values may be shown once. Values belong to the substance of their own block, whether it stands above or below them.

Columns and labels:
[1] = molecular target: PIK3R3 C-terminal SH2 domain (human); experiment: SPR; Biacore 3000; 6X His SH2 proteins held on a Ni-NTA chip, dye-free peptides in solution, equilibrium
SHC3 SH2 domain (human) = SHC3 SH2 domain (human) (UniProt Q92529); experiment: as above
FES SH2 domain (human) = FES SH2 domain (human) (UniProt P07332); experiment: peptide or protein array; SH2/PTB proteins spotted on aldehyde slides, rhodamine peptide titrated in buffer B (20 mM HEPES, 100 mM KCl, 0.1% Tween-20, 5 mM DTT, pH 7.8), 1 h at room temperature; replicate assays
BLK SH2 domain (human) = BLK SH2 domain (human) (UniProt P51451); experiment: as above
[2] = molecular target: SYK tandem SH2 domains (human); experiment: as above
[3] = molecular target: PLCG2 tandem SH2 domains (human); experiment: as above
YES1 SH2 domain (human) = YES1 SH2 domain (human) (UniProt P07947); experiment: as above
[4] = molecular target: PIK3R3 tandem SH2 domains (human); experiment: as above
[5] = molecular target: RASA1 N-terminal SH2 domain (human) (UniProt P20936); experiment: as above
[6] = molecular target: SYK N-terminal SH2 domain (human); experiment: as above
GRB7 SH2 domain (human) = GRB7 SH2 domain (human) (UniProt Q14451); experiment: as above
[7] = molecular target: SH3BP2 SH2 domain (human) (UniProt P78314); experiment: as above
TNS1 SH2 domain (human) = TNS1 SH2 domain (human) (UniProt Q9HBL0); experiment: as above
[8] = molecular target: KIT pY936 phosphopeptide, rhodamine-labelled; experiment: fluorescence polarisation; saturation binding in solution: rhodamine peptide fixed at 10 nM, protein titrated 0.002-10 uM, 20 min at room temperature; assay buffer 20 mM HEPES, 100 mM KCl, 0.1% Tween-20, 5 mM DTT, pH 7.8; apparent KD
[9] = molecular target: MET pY1313 phosphopeptide, rhodamine-labelled; experiment: as above
[10] = molecular target: ErbB2 pY685 phosphopeptide, rhodamine-labelled (human); experiment: as above
[11] = molecular target: ErbB4 pY906 phosphopeptide, rhodamine-labelled (human); experiment: as above
[12] = molecular target: ErbB1 pY900 phosphopeptide, rhodamine-labelled (human); experiment: as above
TNS3 SH2 domain (human) [13] = molecular target: TNS3 SH2 domain (human) (UniProt Q68CZ2); experiment: SPR; Biacore 3000; 6X His SH2 proteins held on a Ni-NTA chip, dye-free peptides in solution, equilibrium
[14] = molecular target: PLCG1 C-terminal SH2 domain (human); experiment: as above
[15] = molecular target: PIK3R1 N-terminal SH2 domain (human); experiment: as above
[16] = molecular target: ErbB4 pY833 phosphopeptide, rhodamine-labelled (human); experiment: fluorescence polarisation; saturation binding in solution: rhodamine peptide fixed at 10 nM, protein titrated 0.002-10 uM, 20 min at room temperature; assay buffer 20 mM HEPES, 100 mM KCl, 0.1% Tween-20, 5 mM DTT, pH 7.8; apparent KD
[17] = molecular target: ErbB1 pY978 phosphopeptide, rhodamine-labelled (human); experiment: as above
[18] = molecular target: ErbB1 pY801 phosphopeptide, rhodamine-labelled (human); experiment: as above
[19] = molecular target: SH2D3A SH2 domain (human) (UniProt Q9BRG2); experiment: peptide or protein array; SH2/PTB proteins spotted on aldehyde slides, rhodamine peptide titrated in buffer B (20 mM HEPES, 100 mM KCl, 0.1% Tween-20, 5 mM DTT, pH 7.8), 1 h at room temperature; replicate assays
TNS3 SH2 domain (human) [20] = molecular target: TNS3 SH2 domain (human) (UniProt Q68CZ2); experiment: as above
TEC SH2 domain (human) = TEC SH2 domain (human) (UniProt P42680); experiment: as above
ITK SH2 domain (human) = ITK SH2 domain (human) (UniProt Q08881); experiment: as above
LCK SH2 domain (human) = LCK SH2 domain (human) (UniProt P06239); experiment: as above
SRC SH2 domain (human) = SRC SH2 domain (human) (UniProt P12931); experiment: as above
[21] = molecular target: PLCG1 tandem SH2 domains (human); experiment: as above
GRAP2 SH2 domain (human) = GRAP2 SH2 domain (human) (UniProt O75791); experiment: as above
Chain of GRAP2 SH2 domain (human) (O75791 58-149): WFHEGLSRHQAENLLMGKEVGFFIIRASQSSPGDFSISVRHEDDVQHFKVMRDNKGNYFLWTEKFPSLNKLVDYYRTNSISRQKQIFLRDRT

Chain of SH2D3A SH2 domain (human) (Q9BRG2 15-114): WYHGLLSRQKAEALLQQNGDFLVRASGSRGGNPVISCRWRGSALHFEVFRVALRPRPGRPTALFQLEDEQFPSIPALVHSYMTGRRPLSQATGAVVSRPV
Chain of LCK SH2 domain (human) (P06239 127-224): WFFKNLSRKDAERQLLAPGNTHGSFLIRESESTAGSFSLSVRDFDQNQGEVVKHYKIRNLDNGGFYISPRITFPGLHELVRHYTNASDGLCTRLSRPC
Chain of TNS3 SH2 domain (human) (Q68CZ2 1172-1282): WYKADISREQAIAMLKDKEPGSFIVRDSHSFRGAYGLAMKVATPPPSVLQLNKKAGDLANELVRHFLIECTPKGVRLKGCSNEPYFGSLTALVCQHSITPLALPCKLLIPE
Chain of GRB7 SH2 domain (human) (Q14451 431-527): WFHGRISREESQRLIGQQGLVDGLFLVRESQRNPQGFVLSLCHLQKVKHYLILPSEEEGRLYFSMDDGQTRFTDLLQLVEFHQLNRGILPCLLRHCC
Chain of YES1 SH2 domain (human) (P07947 158-255): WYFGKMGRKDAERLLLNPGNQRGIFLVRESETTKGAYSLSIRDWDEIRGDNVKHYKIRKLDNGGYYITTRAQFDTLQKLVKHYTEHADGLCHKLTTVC
Chain of SHC3 SH2 domain (human) (Q92529 499-590): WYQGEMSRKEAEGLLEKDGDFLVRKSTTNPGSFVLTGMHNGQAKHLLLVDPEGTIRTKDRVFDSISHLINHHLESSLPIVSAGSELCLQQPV
Chain of RASA1 N-terminal SH2 domain (human) (P20936 whole entry, the tested form may be a part): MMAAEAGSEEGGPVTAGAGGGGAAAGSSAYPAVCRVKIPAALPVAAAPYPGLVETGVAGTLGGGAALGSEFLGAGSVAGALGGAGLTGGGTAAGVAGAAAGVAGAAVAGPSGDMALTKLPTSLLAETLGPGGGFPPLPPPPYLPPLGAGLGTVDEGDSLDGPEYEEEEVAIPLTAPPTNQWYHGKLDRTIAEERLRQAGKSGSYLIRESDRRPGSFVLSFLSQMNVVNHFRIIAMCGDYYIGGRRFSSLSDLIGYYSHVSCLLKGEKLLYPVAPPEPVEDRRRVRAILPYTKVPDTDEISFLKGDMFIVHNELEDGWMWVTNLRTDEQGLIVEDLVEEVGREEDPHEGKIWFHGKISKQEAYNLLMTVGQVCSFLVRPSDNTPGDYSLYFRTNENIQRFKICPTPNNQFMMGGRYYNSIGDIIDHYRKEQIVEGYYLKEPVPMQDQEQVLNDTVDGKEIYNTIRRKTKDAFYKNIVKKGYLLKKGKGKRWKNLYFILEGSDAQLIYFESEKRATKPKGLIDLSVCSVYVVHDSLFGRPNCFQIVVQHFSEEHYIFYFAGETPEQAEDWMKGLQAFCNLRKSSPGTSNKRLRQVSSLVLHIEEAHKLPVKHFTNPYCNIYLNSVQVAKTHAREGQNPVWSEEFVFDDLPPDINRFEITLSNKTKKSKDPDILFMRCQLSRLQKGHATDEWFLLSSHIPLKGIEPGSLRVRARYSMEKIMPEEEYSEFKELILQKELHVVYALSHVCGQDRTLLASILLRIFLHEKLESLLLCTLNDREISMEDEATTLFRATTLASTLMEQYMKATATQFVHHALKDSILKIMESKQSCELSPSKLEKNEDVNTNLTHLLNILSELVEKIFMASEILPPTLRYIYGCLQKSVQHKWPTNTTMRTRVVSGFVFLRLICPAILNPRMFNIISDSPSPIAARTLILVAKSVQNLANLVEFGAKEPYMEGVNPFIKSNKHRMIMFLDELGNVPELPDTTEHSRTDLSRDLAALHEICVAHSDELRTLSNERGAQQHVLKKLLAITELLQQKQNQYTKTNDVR
Chain of FES SH2 domain (human) (P07332 460-549): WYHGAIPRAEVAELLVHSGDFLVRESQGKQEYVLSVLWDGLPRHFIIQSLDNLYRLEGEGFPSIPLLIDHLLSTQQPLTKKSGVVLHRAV
Chain of TNS1 SH2 domain (human) (Q9HBL0 1567-1676): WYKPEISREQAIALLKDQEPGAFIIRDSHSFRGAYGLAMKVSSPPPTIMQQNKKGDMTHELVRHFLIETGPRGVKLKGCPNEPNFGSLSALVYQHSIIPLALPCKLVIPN
Chain of BLK SH2 domain (human) (P51451 124-220): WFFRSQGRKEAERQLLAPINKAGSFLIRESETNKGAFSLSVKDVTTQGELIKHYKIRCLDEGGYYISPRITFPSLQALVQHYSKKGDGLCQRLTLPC
Chain of ITK SH2 domain (human) (Q08881 239-338): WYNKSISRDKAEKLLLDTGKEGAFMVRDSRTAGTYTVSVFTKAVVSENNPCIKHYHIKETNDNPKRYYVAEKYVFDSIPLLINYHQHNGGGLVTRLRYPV
Chain of SH3BP2 SH2 domain (human) (P78314 457-555): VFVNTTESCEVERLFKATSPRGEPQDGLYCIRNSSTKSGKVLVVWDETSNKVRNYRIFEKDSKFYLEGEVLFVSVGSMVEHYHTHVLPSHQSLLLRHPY
Chain of TEC SH2 domain (human) (P42680 247-345): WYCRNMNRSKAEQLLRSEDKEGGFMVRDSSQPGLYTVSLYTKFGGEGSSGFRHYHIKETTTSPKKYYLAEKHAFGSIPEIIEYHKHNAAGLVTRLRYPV

Substance: PIK3R3 C-terminal SH2 domain (domain or fragment)
Kd [8]: 8380 nM | Kd [9]: 255 nM | Kd [10]: 4430 nM | Kd [11]: 1840 nM | Kd [12]: 5830 nM

Substance: ErbB1 pY801 phosphopeptide, dye-free
Kd (TNS3 SH2 domain (human) [13]): 916 nM | Kd [14]: 2330 nM | Kd [15]: 2800 nM

Substance: PLCG1 C-terminal SH2 domain (domain or fragment)
Kd [16]: 4730 nM | Kd [9]: 2280 nM | Kd [12]: 15500 nM | Kd [17]: 1370 nM | Kd [18]: 9440 nM

Substance: ErbB3 pY789 phosphopeptide, rhodamine-labelled, for protein microarrays
Kd [19]: 170 nM and 401 nM and 402 nM | Kd (TNS3 SH2 domain (human) [20]): 802 nM | Kd (TEC SH2 domain (human)): 1660 nM | Kd (ITK SH2 domain (human)): 1160 nM | Kd (LCK SH2 domain (human)): 550 nM and 1140 nM and 1120 nM | Kd (SRC SH2 domain (human)): 1850 nM and 424 nM | Kd [21]: 380 nM | Kd (GRAP2 SH2 domain (human)): 1310 nM | Kd [6]: 609 nM and 1330 nM | Kd (GRB7 SH2 domain (human)): 1190 nM

The next lines start with the values.

Kd [1]: 566 nM | Kd (SHC3 SH2 domain (human)): 6710 nM
Substance: ErbB4 pY906 phosphopeptide, dye-free

Kd (FES SH2 domain (human)): 3200 nM | Kd (BLK SH2 domain (human)): 199 nM | Kd [2]: 785 nM and 4980 nM | Kd [3]: 1190 nM | Kd (YES1 SH2 domain (human)): 735 nM and 2260 nM | Kd [4]: 7.73 nM | Kd [5]: 5150 nM | Kd [6]: 2400 nM | Kd (GRB7 SH2 domain (human)): 10 nM | Kd [7]: 6400 nM | Kd (TNS1 SH2 domain (human)): 1.44 nM
Substance: ErbB3 pY1132 phosphopeptide, rhodamine-labelled, for protein microarrays
